The source of these data is IntAct's records for PubMed 17435768.

B1: Heterogeneous nuclear ribonucleoprotein A1 (Homo sapiens), P09651-2 (parent)
chain: MSKSESPKEPEQLRKLFIGGLSFETTDESLRSHFEQWGTLTDCVVMRDPNTKRSRGFGFVTYATVEEVDAAMNARPHKVDGRVVEPKRAVSREDSQRPGAHLTVKKIFVGGIKEDTEEHHLRDYFEQYGKIEVIEIMTDRGSGKKRGFAFVTFDDHDSVDKIVIQKYHTVNGHNCEVRKALSKQEMASASSSQRGRSGSGNFGGGRGGGFGGNDNFGRGGNFSGRGGFGGSRGGGGYGGSGDGYNGFGNDGSNFGGGGSYNDFGNYNNQSSNFGPMKGGNFGGRSSGPYGGGGQYFAKPRNQGGYGGSSSSSSYGSGRRF
B2: Heterogeneous nuclear ribonucleoprotein M (Homo sapiens), P52272 (parent)
chain: MAAGVEAAAEVAATEIKMEEESGAPGVPSGNGAPGPKGEGERPAQNEKRKEKNIKRGGNRFEPYANPTKRYRAFITNIPFDVKWQSLKDLVKEKVGEVTYVELLMDAEGKSRGCAVVEFKMEESMKKAAEVLNKHSLSGRPLKVKEDPDGEHARRAMQKVMATTGGMGMGPGGPGMITIPPSILNNPNIPNEIIHALQAGRLGSTVFVANLDYKVGWKKLKEVFSMAGVVVRADILEDKDGKSRGIGTVTFEQSIEAVQAISMFNGQLLFDRPMHVKMDERALPKGDFFPPERPQQLPHGLGGIGMGLGPGGQPIDANHLNKGIGMGNIGPAGMGMEGIGFGINKMGGMEGPFGGGMENMGRFGSGMNMGRINEILSNALKRGEIIAKQGGGGGGGSVPGIERMGPGIDRLGGAGMERMGAGLGHGMDRVGSEIERMGLVMDRMGSVERMGSGIERMGPLGLDHMASSIERMGQTMERIGSGVERMGAGMGFGLERMAAPIDRVGQTIERMGSGVERMGPAIERMGLSMERMVPAGMGAGLERMGPVMDRMATGLERMGANNLERMGLERMGANSLERMGLERMGANSLERMGPAMGPALGAGIERMGLAMGGGGGASFDRAIEMERGNFGGSFAGSFGGAGGHAPGVARKACQIFVRNLPFDFTWKMLKDKFNECGHVLYADIKMENGKSKGCGVVKFESPEVAERACRMMNGMKLSGREIDVRIDRNA

In the first assay the parent is B1. The conditions noted are these: with tnpo1_human TNPO1, Q92973.
Sequence of tnpo1_human TNPO1, Q92973 (Q92973 whole entry): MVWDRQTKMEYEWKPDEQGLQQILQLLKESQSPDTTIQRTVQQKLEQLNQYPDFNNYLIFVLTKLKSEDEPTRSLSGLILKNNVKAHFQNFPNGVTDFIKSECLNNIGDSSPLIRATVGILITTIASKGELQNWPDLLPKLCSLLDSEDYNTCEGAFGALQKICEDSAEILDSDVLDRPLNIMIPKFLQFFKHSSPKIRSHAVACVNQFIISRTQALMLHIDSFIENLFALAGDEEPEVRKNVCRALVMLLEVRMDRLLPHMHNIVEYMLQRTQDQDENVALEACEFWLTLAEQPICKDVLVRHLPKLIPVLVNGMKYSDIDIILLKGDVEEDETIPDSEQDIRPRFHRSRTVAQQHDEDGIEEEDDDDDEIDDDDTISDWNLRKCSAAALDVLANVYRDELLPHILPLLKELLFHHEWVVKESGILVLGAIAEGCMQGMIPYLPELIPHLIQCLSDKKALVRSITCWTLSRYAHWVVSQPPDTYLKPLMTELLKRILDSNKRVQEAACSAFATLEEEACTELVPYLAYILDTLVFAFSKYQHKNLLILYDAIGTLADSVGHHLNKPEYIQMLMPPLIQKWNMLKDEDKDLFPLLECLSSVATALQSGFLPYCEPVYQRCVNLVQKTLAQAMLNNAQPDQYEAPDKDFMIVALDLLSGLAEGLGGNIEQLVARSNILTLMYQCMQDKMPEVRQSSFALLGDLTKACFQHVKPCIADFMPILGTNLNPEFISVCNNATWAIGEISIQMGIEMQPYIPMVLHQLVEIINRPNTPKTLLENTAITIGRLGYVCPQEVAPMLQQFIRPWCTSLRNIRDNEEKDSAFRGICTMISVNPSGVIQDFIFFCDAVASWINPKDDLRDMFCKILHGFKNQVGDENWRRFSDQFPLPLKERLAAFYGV
G274A: the “effect of a mutation on the interaction” value is on record as “decreasing interaction”.

The next assay covers variants of B2. Particulars: with tnpo1_human TNPO1, Q92973.
With P63A;Y64A, the “effect of a mutation on the interaction” value is recorded as “decreasing interaction strength”.
